According to patent US5198419A, “Formulated medicines for enhancing the efficacy of beta-lactam antibiotics in prophylaxis and treatment against infectious disease due to pathogenic bacteria” (Immuno Japan Inc., priority 1989, dated 1993):

Columns and labels:
bacteria = conditions: iron-free lactoferrin; previous studies; cited from earlier work
[1] = tested on: Kleb. pneumoniae ATCC 10031; experiment: MIC of apolactoferrin on agar-plate medium; type: cell-based, Klebsiella pneumoniae
From the text: (§1) The minimum inhibitory concentration of apolactoferrin against
(§2) bacteria on the agar-plate medium.

[2] = tested on: Kleb. pneumoniae IFO 3512; experiment: MIC of apolactoferrin on agar-plate medium; type: cell-based, Klebsiella pneumoniae
From the text: as §1, §2

Kleb. pneumoniae 3K25 = experiment: MIC of apolactoferrin on agar-plate medium; type: cell-based, Klebsiella pneumoniae
From the text: as §1, §2

[3] = tested on: Ser. marcescens IFO 12648; experiment: MIC of apolactoferrin on agar-plate medium; type: cell-based, Serratia marcescens
From the text: as §1, §2

[4] = tested on: St. epidermidis ATCC 13288; experiment: MIC of apolactoferrin on agar-plate medium; type: cell-based, Streptococcus epidermidis
From the text: (§3) Therefore, even though the lactoferrins have very weak antibacterial activity in vitro, it is questionable that they exert direct antibacterial activity against bacteria infecting mammals.
as §1, §2

Pseu. aeruginosa TMS 11 = experiment: MIC of apolactoferrin on agar-plate medium; type: cell-based, Pseudomonas aeruginosa
From the text: as §1, §2

Pseu. aeruginosa No. 11 = experiment: MIC of apolactoferrin on agar-plate medium; type: cell-based, Pseudomonas aeruginosa
From the text: as §1, §2

Pseu. aeruginosa No. 47 = experiment: MIC of apolactoferrin on agar-plate medium; type: cell-based, Pseudomonas aeruginosa
From the text: as §1, §2

[5] = tested on: Pseu. aeruginosa IFO 3445; experiment: MIC of apolactoferrin on agar-plate medium; type: cell-based, Pseudomonas aeruginosa
From the text: as §1, §2

Pr. rettgeri GN624 = experiment: MIC of apolactoferrin on agar-plate medium; type: cell-based
From the text: as §1, §2

[6] = tested on: Enterobacter feacalis 95-1; experiment: MIC of apolactoferrin on agar-plate medium; type: cell-based
From the text: as §1, §2

Serratia marcescens No 2 = experiment: MIC of apolactoferrin on agar-plate medium; type: cell-based
From the text: as §1, §2

Pr. morganii IFO 3848 = experiment: MIC of apolactoferrin on agar-plate medium; type: cell-based
From the text: as §1, §2

Shigella sonnei = experiment: MIC of apolactoferrin on agar-plate medium; type: cell-based
From the text: as §1, §2

[7] = tested on: Staphylococcus aureus 209p; experiment: MIC of apolactoferrin on agar-plate medium; type: cell-based
From the text: as §1, §2

Proteus mirabilis 1287 = experiment: MIC of apolactoferrin on agar-plate medium; type: cell-based
From the text: as §1, §2

Escherichia coli No 35 = experiment: MIC of apolactoferrin on agar-plate medium; type: cell-based
From the text: as §1, §2

Pr. morganii GN125 = experiment: MIC of apolactoferrin on agar-plate medium; type: cell-based
From the text: as §1, §2

[8] = tested on: Proteus vulgaris IFO 3851; experiment: MIC of apolactoferrin on agar-plate medium; type: cell-based
From the text: as §1, §2

[9] = tested on: Staphylococcus aureus 227; experiment: MIC of apolactoferrin on agar-plate medium; type: cell-based
From the text: as §1, §2

Salmonella paratyphi B = experiment: MIC of apolactoferrin on agar-plate medium; type: cell-based
From the text: as §1, §2

[10] = tested on: Staphylococcus aureus Smith; experiment: MIC of apolactoferrin on agar-plate medium; type: cell-based
From the text: as §1, §2

[11] = tested on: Serratia marcescens No 78; experiment: MIC of apolactoferrin on agar-plate medium; type: cell-based
From the text: as §1, §2

Pr. inconstans IFO 12930 = experiment: MIC of apolactoferrin on agar-plate medium; type: cell-based
From the text: as §1, §2

Escherichia coli C11 = experiment: MIC of apolactoferrin on agar-plate medium; type: cell-based
From the text: as §1, §2

Citrobacter freundii 2 = experiment: MIC of apolactoferrin on agar-plate medium; type: cell-based
From the text: as §1, §2

[12] = tested on: Pseudomonas aeruginosa E 7; experiment: MIC of apolactoferrin on agar-plate medium; type: cell-based
From the text: as §1, §2

[13] = tested on: Escherichia coli NIHJ JC-2; experiment: MIC of apolactoferrin on agar-plate medium; type: cell-based
From the text: as §1, §2

Proteus mirabilis GN79 = experiment: MIC of apolactoferrin on agar-plate medium; type: cell-based
From the text: as §1, §2

Shigella flexineri = experiment: MIC of apolactoferrin on agar-plate medium; type: cell-based
From the text: as §1, §2

Salmonella paratyphi A = experiment: MIC of apolactoferrin on agar-plate medium; type: cell-based
From the text: as §1, §2

[14] = tested on: Citrobacter freundii GN 346; experiment: MIC of apolactoferrin on agar-plate medium; type: cell-based
From the text: as §1, §2

[15] = tested on: Bacillus subtilis ATCC 6633; experiment: MIC of apolactoferrin on agar-plate medium; type: cell-based
From the text: as §1, §2

Klebsiella oxytoca 1006 = experiment: MIC of apolactoferrin on agar-plate medium; type: cell-based
From the text: as §1, §2

Vibrio cholerae 569B = experiment: MIC of apolactoferrin on agar-plate medium; type: cell-based
From the text: as §1, §2

Proteus vulgaris GN76 = experiment: MIC of apolactoferrin on agar-plate medium; type: cell-based
From the text: as §1, §2

[16] = tested on: Klebsiella pneumoniae GN69; experiment: MIC of apolactoferrin on agar-plate medium; type: cell-based
From the text: as §1, §2

Salmonella typhi = experiment: MIC of apolactoferrin on agar-plate medium; type: cell-based
From the text: as §1, §2

Enterobacter feacalis 64 = experiment: MIC of apolactoferrin on agar-plate medium; type: cell-based
From the text: as §1, §2

[17] = tested on: Enterobacter cloacae No 91; experiment: MIC of apolactoferrin on agar-plate medium; type: cell-based
From the text: as §1, §2

[18] = tested on: Micrococcus lutens ATCC 9341; experiment: MIC of apolactoferrin on agar-plate medium; type: cell-based
From the text: as §1, §2

Pr. inconstans GN 627 = experiment: MIC of apolactoferrin on agar-plate medium; type: cell-based
From the text: as §1, §2

Pr. rettgeri IFO 13501 = experiment: MIC of apolactoferrin on agar-plate medium; type: cell-based
From the text: as §1, §2

most pathogenic bacteria = experiment: Antibacterial activity of apolactoferrin in vitro, most bacteria; type: cell-based; conditions: most of the bacteria
From the text: as §3, §1, §2

B1: apolactoferrin: iron-free lactoferrin, from bovine milk (protein, UniProt P24627 20-708, looked up)
Lactotransferrin: APRKNVRWCTISQPEWFKCRRWQWRMKKLGAPSITCVRRAFALECIRAIAEKKADAVTLDGGMVFEAGRDPYKLRPVAAEIYGTKESPQTHYYAVAVVKKGSNFQLDQLQGRKSCHTGLGRSAGWIIPMGILRPYLSWTESLEPLQGAVAKFFSASCVPCIDRQAYPNLCQLCKGEGENQCACSSREPYFGYSGAFKCLQDGAGDVAFVKETTVFENLPEKADRDQYELLCLNNSRAPVDAFKECHLAQVPSHAVVARSVDGKEDLIWKLLSKAQEKFGKNKSRSFQLFGSPPGQRDLLFKDSALGFLRIPSKVDSALYLGSRYLTTLKNLRETAEEVKARYTRVVWCAVGPEEQKKCQQWSQQSGQNVTCATASTTDDCIVLVLKGEADALNLDGGYIYTAGKCGLVPVLAENRKSSKHSSLDCVLRPTEGYLAVAVVKKANEGLTWNSLKDKKSCHTAVDRTAGWNIPMGLIVNQTGSCAFDEFFSQSCAPGADPKSRLCALCAGDDQGLDKCVPNSKEKYYGYTGAFRCLAEDVGDVAFVKNDTVWENTNGESTADWAKNLNREDFRLLCLDGTRKPVTEAQSCHLAVAPNHAVVSRSDRAAHVKQVLLHQQALFGKNGKNCPDKFCLFKSETKNLLFNDNTECLAKLGGRPTYEEYLGTEYVTAIANLKKCSTSPLLEACAFLTR
modifications: iron-free
notes: iron-free lactoferrin, from bovine milk
800 µg/mL: Minimum Inhibitory Conc. [4]
more than 6,400 μg/ml: minimum inhibitory concentrations (most pathogenic bacteria)
the most potent: antibacterial activity by degree of iron saturation (bacteria)
3,200 μg/ml: Minimum Inhibitory Conc. [6] | Minimum Inhibitory Conc. (Proteus mirabilis 1287) | Minimum Inhibitory Conc. (Pr. morganii GN125) | Minimum Inhibitory Conc. [13] | Minimum Inhibitory Conc. [15] | Minimum Inhibitory Conc. (Vibrio cholerae 569B) | Minimum Inhibitory Conc. (Enterobacter feacalis 64) | Minimum Inhibitory Conc. (Pr. rettgeri IFO 13501)
> 6,400 μg/ml: Minimum Inhibitory Conc. [1] | Minimum Inhibitory Conc. [2] | Minimum Inhibitory Conc. (Kleb. pneumoniae 3K25) | Minimum Inhibitory Conc. [3] | Minimum Inhibitory Conc. (Pseu. aeruginosa TMS 11) | Minimum Inhibitory Conc. (Pseu. aeruginosa No. 11) | Minimum Inhibitory Conc. (Pseu. aeruginosa No. 47) | Minimum Inhibitory Conc. [5] | Minimum Inhibitory Conc. (Serratia marcescens No 2) | Minimum Inhibitory Conc. (Pr. morganii IFO 3848) | Minimum Inhibitory Conc. (Shigella sonnei) | Minimum Inhibitory Conc. [7] | Minimum Inhibitory Conc. [8] | Minimum Inhibitory Conc. [9] | Minimum Inhibitory Conc. (Salmonella paratyphi B) | Minimum Inhibitory Conc. [10] | Minimum Inhibitory Conc. [11] | Minimum Inhibitory Conc. (Pr. inconstans IFO 12930) | Minimum Inhibitory Conc. (Escherichia coli C11) | Minimum Inhibitory Conc. (Citrobacter freundii 2) | Minimum Inhibitory Conc. [12] | Minimum Inhibitory Conc. (Proteus mirabilis GN79) | Minimum Inhibitory Conc. (Shigella flexineri) | Minimum Inhibitory Conc. (Salmonella paratyphi A) | Minimum Inhibitory Conc. [14] | Minimum Inhibitory Conc. (Klebsiella oxytoca 1006) | Minimum Inhibitory Conc. (Proteus vulgaris GN76) | Minimum Inhibitory Conc. [16] | Minimum Inhibitory Conc. (Salmonella typhi) | Minimum Inhibitory Conc. [17] | Minimum Inhibitory Conc. [18] | Minimum Inhibitory Conc. (Pr. inconstans GN 627)
1,600 μg/ml: Minimum Inhibitory Conc. (Escherichia coli No 35)
6,400 μg/ml: Minimum Inhibitory Conc. (Pr. rettgeri GN624)
